These results are taken from IntAct's records for PubMed 19033468.

To fix the notation:
B1: Protein kinase MCK1 (Saccharomyces cerevisiae), P21965 (parent)
chain: MSTEEQNGVPLQRGSEFIADDVTSNKSNNTRRMLVKEYRKIGRGAFGTVVQAYLTQDKKNWLGPFAIKKVPAHTEYKSRELQILRIADHPNIVKLQYFFTHLSPQDNKVYQHLAMECLPETLQIEINRYVTNKLEMPLKHIRLYTYQIARGMLYLHGLGVCHRDIKPSNVLVDPETGVLKICDFGSAKKLEHNQPSISYICSRFYRAPELIIGCTQYTTQIDIWGLGCVMGEMLIGKAIFQGQEPLLQLREIAKLLGPPDKRFIFFSNPAYDGPLFSKPLFSGSSQQRFEKYFGHSGPDGIDLLMKILVYEPQQRLSPRRILAHQFFNELRNDDTFLPRGFTEPIKLPNLFDFNDFELQILGEFADKIKPTKVAE
B2: E3 ubiquitin-protein ligase UBR1 (Saccharomyces cerevisiae), P19812 (parent)
chain: MSVADDDLGSLQGHIRRTLRSIHNLPYFRYTRGPTERADMSRALKEFIYRYLYFVISNSGENLPTLFNAHPKQKLSNPELTVFPDSLEDAVDIDKITSQQTIPFYKIDESRIGDVHKHTGRNCGRKFKIGEPLYRCHECGCDDTCVLCIHCFNPKDHVNHHVCTDICTEFTSGICDCGDEEAWNSPLHCKAEEQENDISEDPATNADIKEEDVWNDSVNIALVELVLAEVFDYFIDVFNQNIEPLPTIQKDITIKLREMTQQGKMYERAQFLNDLKYENDYMFDGTTTAKTSPSNSPEASPSLAKIDPENYTVIIYNDEYHNYSQATTALRQGVPDNVHIDLLTSRIDGEGRAMLKCSQDLSSVLGGFFAVQTNGLSATLTSWSEYLHQETCKYIILWITHCLNIPNSSFQTTFRNMMGKTLCSEYLNATECRDMTPVVEKYFSNKFDKNDPYRYIDLSILADGNQIPLGHHKILPESSTHSLSPLINDVETPTSRTYSNTRLQHILYFDNRYWKRLRKDIQNVIIPTLASSNLYKPIFCQQVVEIFNHITRSVAYMDREPQLTAIRECVVQLFTCPTNAKNIFENQSFLDIVWSIIDIFKEFCKVEGGVLIWQRVQKSNLTKSYSISFKQGLYTVETLLSKVHDPNIPLRPKEIISLLTLCKLFNGAWKIKRKEGEHVLHEDQNFISYLEYTTSIYSIIQTAEKVSEKSKDSIDSKLFLNAIRIISSFLGNRSLTYKLIYDSHEVIKFSVSHERVAFMNPLQTMLSFLIEKVSLKDAYEALEDCSDFLKISDFSLRSVVLCSQIDVGFWVRNGMSVLHQASYYKNNPELGSYSRDIHLNQLAILWERDDIPRIIYNILDRWELLDWFTGEVDYQHTVYEDKISFIIQQFIAFIYQILTERQYFKTFSSLKDRRMDQIKNSIIYNLYMKPLSYSKLLRSVPDYLTEDTTEFDEALEEVSVFVEPKGLADNGVFKLKASLYAKVDPLKLLNLENEFESSATIIKSHLAKDKDEIAKVVLIPQVSIKQLDKDALNLGAFTRNTVFAKVVYKLLQVCLDMEDSTFLNELLHLVHGIFRDDELINGKDSIPEAYLSKPICNLLLSIANAKSDVFSESIVRKADYLLEKMIMKKPNELFESLIASFGNQYVNDYKDKKLRQGVNLQETEKERKRRLAKKHQARLLAKFNNQQTKFMKEHESEFDEQDNDVDMVGEKVYESEDFTCALCQDSSSTDFFVIPAYHDHSPIFRPGNIFNPNEFMPMWDGFYNDDEKQAYIDDDVLEALKENGSCGSRKVFVSCNHHIHHNCFKRYVQKKRFSSNAFICPLCQTFSNCTLPLCQTSKANTGLSLDMFLESELSLDTLSRLFKPFTEENYRTINSIFSLMISQCQGFDKAVRKRANFSHKDVSLILSVHWANTISMLEIASRLEKPYSISFFRSREQKYKTLKNILVCIMLFTFVIGKPSMEFEPYPQQPDTVWNQNQLFQYIVRSALFSPVSLRQTVTEALTTFSRQFLRDFLQGLSDAEQVTKLYAKASKIGDVLKVSEQMLFALRTISDVRMEGLDSESIIYDLAYTFLLKSLLPTIRRCLVFIKVLHELVKDSENETLVINGHEVEEELEFEDTAEFVNKALKMITEKESLVDLLTTQESIVSHPYLENIPYEYCGIIKLIDLSKYLNTYVTQSKEIKLREERSQHMKNADNRLDFKICLTCGVKVHLRADRHEMTKHLNKNCFKPFGAFLMPNSSEVCLHLTQPPSNIFISAPYLNSHGEVGRNAMRRGDLTTLNLKRYEHLNRLWINNEIPGYISRVMGDEFRVTILSNGFLFAFNREPRPRRIPPTDEDDEDMEEGEDGFFTEGNDEMDVDDETGQAANLFGVGAEGIAGGGVRDFFQFFENFRNTLQPQGNGDDDAPQNPPPILQFLGPQFDGATIIRNTNPRNLDEDDSDDNDDSDEREIW
partner: B1 chain

Variants of B1 are the subject of one assay. The note with it: with ubr1_yeast UBR1, P19812.
Turning to MSTEEQNGVPLQRGSEFIADDVTSNKSNNTRRMLVKEYRKIGRGAFGTVVQAYLTQDKKNWLGPFAIKKVPAHTEYKSRELQILRIADHPNIVKLQYFFTHLSPQDNKVYQHLAMECLPETLQIEINRYVTNKLEMPLKHIRLYTYQIARGMLYLHGLGVCHRAIKPSNVLVDPETGVLKICDFGSAKKLEHNQPSISYICSRFYRAPELIIGCTQYTTQIDIWGLGCVMGEMLIGKAIFQGQEPLLQLREIAKLLGPPDKRFIFFSNPAYDGPLFSKPLFSGSSQQRFEKYFGHSGPDGIDLLMKILVYEPQQRLSPRRILAHQFFNELRNDDTFLPRGFTEPIKLPNLFDFNDFELQILGEFADKIKPTKVAE [D164A], the “effect of a mutation on the interaction” value is “disrupting interaction”.

Variants of B2 are the subject of a further assay. The note with it: with mck1_yeast MCK1, P21965.
For the variant Y277F, the “effect of a mutation on the interaction” value is given as “disrupting interaction”.
